Molecular target: SF3b1-NT-His6 (human) (UniProt O75533)
UniProt O75533, sequence (O75533 1-511): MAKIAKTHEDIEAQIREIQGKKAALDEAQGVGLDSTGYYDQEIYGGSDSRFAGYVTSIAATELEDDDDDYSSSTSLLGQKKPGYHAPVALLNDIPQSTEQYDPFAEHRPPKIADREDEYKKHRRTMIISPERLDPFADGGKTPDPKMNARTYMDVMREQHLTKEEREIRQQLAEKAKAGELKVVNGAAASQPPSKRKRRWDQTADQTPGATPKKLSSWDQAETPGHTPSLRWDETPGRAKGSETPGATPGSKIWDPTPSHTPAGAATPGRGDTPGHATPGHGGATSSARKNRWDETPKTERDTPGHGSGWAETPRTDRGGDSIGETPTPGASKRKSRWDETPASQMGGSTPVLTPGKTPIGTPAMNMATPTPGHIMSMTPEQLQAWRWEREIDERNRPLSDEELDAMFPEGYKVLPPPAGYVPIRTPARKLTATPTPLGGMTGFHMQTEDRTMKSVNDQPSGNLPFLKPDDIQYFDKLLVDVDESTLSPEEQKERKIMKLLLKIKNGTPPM

Substance | approximate Km of phosphorylation, from velocities of phosphate incorporation at 0.7 and 7 μM substrate
GST-DYRK1A-ΔC (from UniProt Q63470 1-763) (enzyme) | 2.75 µM
cyclin E/CDK2 (from UniProt P24864 1-410; P24941 1-298) (complex) | 3.51 µM

— publication PMC1420302
